Test results from publication PMC3674922, “Single-molecule photobleaching reveals increased MET receptor dimerization upon ligand binding in intact cells” (BMC Biophysics, 2013).

Biological target: T1, soluble MET ectodomain (MET928) (human, UniProt P08581 25-932)
T1 construct: MET receptor tyrosine kinase, human, soluble complete ectodomain (MET928)
Assay: fluorescence correlation spectroscopy (FCS); in solution; 1 nM InlB-ATTO647N, MET928 titrated from 0.01 nM to 1-2 uM; PBS with 0.05% Tween-20; at least 3 h at room temperature; objective at 20°C; diffusion time fitted to a 1:1 binding model
Conditions: both partners purified

T1 sequence (P08581 25-932): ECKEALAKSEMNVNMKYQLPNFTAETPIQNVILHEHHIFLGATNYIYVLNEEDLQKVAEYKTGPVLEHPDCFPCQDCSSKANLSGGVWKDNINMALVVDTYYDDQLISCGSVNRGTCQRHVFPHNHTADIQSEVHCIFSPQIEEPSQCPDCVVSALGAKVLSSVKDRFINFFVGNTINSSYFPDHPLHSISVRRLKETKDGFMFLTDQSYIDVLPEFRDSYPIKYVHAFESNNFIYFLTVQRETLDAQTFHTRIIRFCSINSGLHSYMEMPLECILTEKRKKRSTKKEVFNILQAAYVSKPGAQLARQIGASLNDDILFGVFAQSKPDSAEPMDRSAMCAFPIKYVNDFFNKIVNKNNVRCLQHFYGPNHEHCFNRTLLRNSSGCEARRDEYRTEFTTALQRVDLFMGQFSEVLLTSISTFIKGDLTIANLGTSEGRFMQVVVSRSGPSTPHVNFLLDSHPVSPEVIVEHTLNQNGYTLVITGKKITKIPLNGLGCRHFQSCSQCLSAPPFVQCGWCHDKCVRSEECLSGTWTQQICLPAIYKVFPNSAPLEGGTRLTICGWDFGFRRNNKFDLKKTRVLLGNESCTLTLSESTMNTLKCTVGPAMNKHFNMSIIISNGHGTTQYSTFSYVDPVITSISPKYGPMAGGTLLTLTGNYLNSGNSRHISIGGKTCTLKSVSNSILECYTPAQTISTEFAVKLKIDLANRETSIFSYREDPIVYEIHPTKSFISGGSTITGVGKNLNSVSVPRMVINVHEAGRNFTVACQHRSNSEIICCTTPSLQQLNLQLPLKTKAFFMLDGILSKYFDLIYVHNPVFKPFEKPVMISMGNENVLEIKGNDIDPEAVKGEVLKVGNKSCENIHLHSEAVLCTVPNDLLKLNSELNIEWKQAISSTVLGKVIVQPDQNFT

B1: InlB-ATTO647N (InlB321 with C242A and K280C, labelled with ATTO647N at C280) (domain or fragment)
chain: ETITVPTPIKQIFSDDAFAETIKDNLKKKSVTDAVTQNELNSIDQIIANNSDIKSVQGIQYLPNVTKLFLNGNKLTDIKPLANLKNLGWLFLDENKVKDLSSLKDLKKLKSLSLEHNGISDINGLVHLPQLESLYLGNNKITDITVLSRLTKLDTLSLEDNQISDIVPLAGLTKLQNLYLSKNHISDLRALAGLKNLDVLELFSQEALNKPINHQSNLVVPNTVKNTDGSLVTPEIISDDGDYECPNVKWHLPEFTNEVSFIFYQPVTIGKAKARFHGRVTQPLKE
modifications: ATTO647N attached to C280 by maleimide coupling (degree of labeling 0.5)
notes: internalin B (InlB) of Listeria monocytogenes, N-terminal internalin domain, amino acids 36-321 (InlB321); either way residue 280 is cysteine; also called dye-labeled InlB321; internalin domain of InlB
Kd: 5 ± 0.8 nM
